The values below come from the supplement of paper PMC9112550, “Optimization of the antimicrobial peptide Bac7 by deep mutational scanning” (BMC Biology, 2022).

The test system of the data set is Escherichia coli TOP10. The experiment in a line: shrunken log2 fold change of peptide-encoding DNA abundance (4.5 h post-induction vs induction); higher = less antimicrobial activity (less host growth inhibition). To be noted: time post-induction: 4.5 h; library: site-saturation at positions 5, 18, 19, 20.
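Further: peptides expressed intracellularly from a pBAD plasmid library in pooled LB shake-flask culture, induced with 0.3% L-arabinose, DNA abundance read by NGS, three biological replicates, DESeq2 with apeglm shrinkage.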

RRIRWRPPRLPRPRPRPCHIPRP: the “shrunken log2 fold change” value was -0.414.

On to RRIRLRPPRLPRPRPRPCEFPRP, for which the “shrunken log2 fold change” value was -0.032.

RRIRMRPPRLPRPRPRPTVCPRP: the “shrunken log2 fold change” value came out at 0.53.

Regarding RRIRLRPPRLPRPRPRPPIRPRP, the “shrunken log2 fold change” value came to 0.296.

As to RRIRYRPPRLPRPRPRPRYMPRP, the “shrunken log2 fold change” value was -0.33.

As for RRIRIRPPRLPRPRPRPAEGPRP, the “shrunken log2 fold change” value is -0.122.

On to RRIRNRPPRLPRPRPRPDISPRP, for which the “shrunken log2 fold change” value came out at 0.000389.

RRIRARPPRLPRPRPRPYDSPRP: the “shrunken log2 fold change” value was -0.0577.

Regarding RRIRPRPPRLPRPRPRPSCQPRP, the “shrunken log2 fold change” value was -0.733.

As for RRIRNRPPRLPRPRPRPCFLPRP, the “shrunken log2 fold change” value is -0.389.

As to RRIRARPPRLPRPRPRPEITPRP, the “shrunken log2 fold change” value came to 0.784.

For RRIRGRPPRLPRPRPRPFSWPRP, the “shrunken log2 fold change” value came to 0.353.

Turning to RRIRWRPPRLPRPRPRPRYKPRP, the “shrunken log2 fold change” value is -0.104.

On to RRIRWRPPRLPRPRPRPTQWPRP, for which the “shrunken log2 fold change” value is 0.346.

Turning to RRIRDRPPRLPRPRPRPVFGPRP, the “shrunken log2 fold change” value came to 0.342.

RRIRGRPPRLPRPRPRPRVMPRP: the “shrunken log2 fold change” value amounted to 0.473.

For the sequence RRIRKRPPRLPRPRPRPHYMPRP, the “shrunken log2 fold change” value was -0.0279.

For RRIRARPPRLPRPRPRPRCMPRP, the “shrunken log2 fold change” value worked out at 1.62.

For RRIRYRPPRLPRPRPRPPYDPRP, the “shrunken log2 fold change” value was -0.553.

RRIRARPPRLPRPRPRPPHKPRP: the “shrunken log2 fold change” value was 0.996.

Regarding RRIRWRPPRLPRPRPRPNKFPRP, the “shrunken log2 fold change” value was -0.369.

As to RRIRTRPPRLPRPRPRPHCAPRP, the “shrunken log2 fold change” value was -0.0401.

For the sequence RRIRRRPPRLPRPRPRPVQVPRP, the “shrunken log2 fold change” value is 0.189.

For RRIRSRPPRLPRPRPRPHVGPRP, the “shrunken log2 fold change” value was -0.0134.

Regarding RRIRMRPPRLPRPRPRPLFWPRP, the “shrunken log2 fold change” value is 0.554.

On to RRIRRRPPRLPRPRPRPKSCPRP, for which the “shrunken log2 fold change” value stood at 0.0766.

Take RRIRQRPPRLPRPRPRPPRPPRP: the “shrunken log2 fold change” value worked out at 0.752.

Consider RRIRTRPPRLPRPRPRPCFPPRP, for which the “shrunken log2 fold change” value was -0.141.

Consider RRIRPRPPRLPRPRPRPQVKPRP, for which the “shrunken log2 fold change” value was found to be 0.205.

RRIRARPPRLPRPRPRPVYAPRP: the “shrunken log2 fold change” value came to 0.205.

For the sequence RRIRGRPPRLPRPRPRPRCQPRP, the “shrunken log2 fold change” value was determined as 0.835.

As for RRIRRRPPRLPRPRPRPGWFPRP, the “shrunken log2 fold change” value came out at 0.283.

As for RRIRERPPRLPRPRPRPTMMPRP, the “shrunken log2 fold change” value was -0.0968.

As to RRIRNRPPRLPRPRPRPIWTPRP, the “shrunken log2 fold change” value was -0.115.

Turning to RRIRCRPPRLPRPRPRPFAGPRP, the “shrunken log2 fold change” value is -0.175.

For RRIRCRPPRLPRPRPRPPAEPRP, the “shrunken log2 fold change” value stood at 1.18.

In the case of RRIRIRPPRLPRPRPRPDIFPRP, the “shrunken log2 fold change” value was -0.828.

For RRIRLRPPRLPRPRPRPYLSPRP, the “shrunken log2 fold change” value is -0.0116.

With RRIRARPPRLPRPRPRPVTDPRP, the “shrunken log2 fold change” value is -0.0398.

Turning to RRIRARPPRLPRPRPRPIWWPRP, the “shrunken log2 fold change” value is -0.00662.

On to RRIRARPPRLPRPRPRPGVNPRP, for which the “shrunken log2 fold change” value was -0.238.

RRIRYRPPRLPRPRPRPPVSPRP: the “shrunken log2 fold change” value is -0.378.

For RRIRIRPPRLPRPRPRPIFLPRP, the “shrunken log2 fold change” value is -0.416.

With RRIRGRPPRLPRPRPRPPPWPRP, the “shrunken log2 fold change” value worked out at 1.41.

For the sequence RRIRGRPPRLPRPRPRPLFYPRP, the “shrunken log2 fold change” value was 0.257.

Take RRIRRRPPRLPRPRPRPMTNPRP: the “shrunken log2 fold change” value was -0.00301.

Consider RRIRTRPPRLPRPRPRPQFKPRP, for which the “shrunken log2 fold change” value turned out to be 2.23.

As to RRIRKRPPRLPRPRPRPQEIPRP, the “shrunken log2 fold change” value was determined as 0.0636.

For the sequence RRIRARPPRLPRPRPRPSSCPRP, the “shrunken log2 fold change” value was -0.0288.

Take RRIRERPPRLPRPRPRPKPVPRP: the “shrunken log2 fold change” value stood at 0.173.

Consider RRIRYRPPRLPRPRPRPNGLPRP, for which the “shrunken log2 fold change” value is -0.0845.

As to RRIRIRPPRLPRPRPRPCYYPRP, the “shrunken log2 fold change” value was -0.272.

For RRIRRRPPRLPRPRPRPQSHPRP, the “shrunken log2 fold change” value was -0.0536.

Take RRIRRRPPRLPRPRPRPFNMPRP: the “shrunken log2 fold change” value is -0.362.

In the case of RRIRERPPRLPRPRPRPWPQPRP, the “shrunken log2 fold change” value is -0.0216.

As for RRIRLRPPRLPRPRPRPLWMPRP, the “shrunken log2 fold change” value is -0.00586.

Take RRIRGRPPRLPRPRPRPMIVPRP: the “shrunken log2 fold change” value amounted to 0.554.

Take RRIRERPPRLPRPRPRPHQPPRP: the “shrunken log2 fold change” value amounted to 0.202.

Consider RRIRERPPRLPRPRPRPWMRPRP, for which the “shrunken log2 fold change” value amounted to 0.079.

Regarding RRIRLRPPRLPRPRPRPAVLPRP, the “shrunken log2 fold change” value is -0.0831.

As to RRIRKRPPRLPRPRPRPIISPRP, the “shrunken log2 fold change” value was -0.132.

With RRIRIRPPRLPRPRPRPSYYPRP, the “shrunken log2 fold change” value is -1.34.

RRIRQRPPRLPRPRPRPKKDPRP: the “shrunken log2 fold change” value was -0.184.

As for RRIRVRPPRLPRPRPRPIICPRP, the “shrunken log2 fold change” value was -0.448.

For the sequence RRIRLRPPRLPRPRPRPTNPPRP, the “shrunken log2 fold change” value is -0.348.

Take RRIRCRPPRLPRPRPRPTEMPRP: the “shrunken log2 fold change” value was -0.102.

Consider RRIRGRPPRLPRPRPRPNRRPRP, for which the “shrunken log2 fold change” value stood at 0.332.

RRIRHRPPRLPRPRPRPHKGPRP: the “shrunken log2 fold change” value is -0.277.

As for RRIRLRPPRLPRPRPRPMRLPRP, the “shrunken log2 fold change” value worked out at 0.0402.

Take RRIRVRPPRLPRPRPRPRLKPRP: the “shrunken log2 fold change” value is 3.13.

As to RRIRRRPPRLPRPRPRPCILPRP, the “shrunken log2 fold change” value was -0.208.

On to RRIRYRPPRLPRPRPRPQPQPRP, for which the “shrunken log2 fold change” value is -0.0927.

For the sequence RRIRNRPPRLPRPRPRPNTCPRP, the “shrunken log2 fold change” value was -0.195.

On to RRIRHRPPRLPRPRPRPGVIPRP, for which the “shrunken log2 fold change” value is -0.0357.

On to RRIRKRPPRLPRPRPRPFVQPRP, for which the “shrunken log2 fold change” value worked out at 0.034.

As to RRIRMRPPRLPRPRPRPRMRPRP, the “shrunken log2 fold change” value was 1.41.

As for RRIRTRPPRLPRPRPRPGLQPRP, the “shrunken log2 fold change” value is -0.138.

As for RRIRRRPPRLPRPRPRPKDWPRP, the “shrunken log2 fold change” value turned out to be 0.36.

With RRIRCRPPRLPRPRPRPMIKPRP, the “shrunken log2 fold change” value was -0.497.

As for RRIRMRPPRLPRPRPRPGELPRP, the “shrunken log2 fold change” value was -0.0122.

Regarding RRIRPRPPRLPRPRPRPPTGPRP, the “shrunken log2 fold change” value came out at 0.452.

On to RRIRTRPPRLPRPRPRPEKPPRP, for which the “shrunken log2 fold change” value is 0.0634.

Regarding RRIRMRPPRLPRPRPRPYREPRP, the “shrunken log2 fold change” value is -0.0131.

Regarding RRIRLRPPRLPRPRPRPMMHPRP, the “shrunken log2 fold change” value is 0.0259.

Take RRIRVRPPRLPRPRPRPVSRPRP: the “shrunken log2 fold change” value turned out to be 0.37.

As for RRIRLRPPRLPRPRPRPHMWPRP, the “shrunken log2 fold change” value was -0.325.

With RRIRERPPRLPRPRPRPIFAPRP, the “shrunken log2 fold change” value was 0.21.

As for RRIRYRPPRLPRPRPRPNHRPRP, the “shrunken log2 fold change” value is -0.767.

Consider RRIRYRPPRLPRPRPRPVINPRP, for which the “shrunken log2 fold change” value was -0.338.

Regarding RRIRTRPPRLPRPRPRPCRCPRP, the “shrunken log2 fold change” value is -0.00986.

On to RRIRGRPPRLPRPRPRPKILPRP, for which the “shrunken log2 fold change” value was found to be 0.229.

On to RRIRKRPPRLPRPRPRPIQRPRP, for which the “shrunken log2 fold change” value was -0.0846.

As for RRIRHRPPRLPRPRPRPNPCPRP, the “shrunken log2 fold change” value is -0.132.

In the case of RRIRARPPRLPRPRPRPWVCPRP, the “shrunken log2 fold change” value is -0.136.

As for RRIRPRPPRLPRPRPRPHHLPRP, the “shrunken log2 fold change” value is -0.0444.

As for RRIRFRPPRLPRPRPRPHCIPRP, the “shrunken log2 fold change” value is -0.457.

On to RRIRSRPPRLPRPRPRPPDWPRP, for which the “shrunken log2 fold change” value stood at 0.661.

With RRIRWRPPRLPRPRPRPNLRPRP, the “shrunken log2 fold change” value was 0.174.

With RRIRVRPPRLPRPRPRPLASPRP, the “shrunken log2 fold change” value is -0.214.

Take RRIRIRPPRLPRPRPRPAGAPRP: the “shrunken log2 fold change” value was 0.359.

Consider RRIRNRPPRLPRPRPRPQDRPRP, for which the “shrunken log2 fold change” value stood at 0.0155.

With RRIRERPPRLPRPRPRPNPQPRP, the “shrunken log2 fold change” value is 0.0138.

In the case of RRIRNRPPRLPRPRPRPMGVPRP, the “shrunken log2 fold change” value was determined as 0.165.

For the sequence RRIRMRPPRLPRPRPRPYEHPRP, the “shrunken log2 fold change” value was -0.291.

For the sequence RRIRMRPPRLPRPRPRPTFKPRP, the “shrunken log2 fold change” value turned out to be 0.198.

In the case of RRIRQRPPRLPRPRPRPWKVPRP, the “shrunken log2 fold change” value is -0.00992.

Regarding RRIRIRPPRLPRPRPRPCHDPRP, the “shrunken log2 fold change” value was -0.223.

As to RRIRVRPPRLPRPRPRPTMPPRP, the “shrunken log2 fold change” value worked out at 0.24.

Take RRIRARPPRLPRPRPRPDATPRP: the “shrunken log2 fold change” value was found to be 1.6.

For RRIRYRPPRLPRPRPRPSQKPRP, the “shrunken log2 fold change” value is -0.359.

For RRIRKRPPRLPRPRPRPNCHPRP, the “shrunken log2 fold change” value is -0.131.

For RRIRKRPPRLPRPRPRPNMIPRP, the “shrunken log2 fold change” value was found to be 0.0348.

In the case of RRIRPRPPRLPRPRPRPPMGPRP, the “shrunken log2 fold change” value was determined as 0.325.

As for RRIRFRPPRLPRPRPRPCGCPRP, the “shrunken log2 fold change” value is -0.0484.

In the case of RRIRERPPRLPRPRPRPKLCPRP, the “shrunken log2 fold change” value was found to be 0.000831.

With RRIRQRPPRLPRPRPRPTCFPRP, the “shrunken log2 fold change” value is 0.132.

Consider RRIRVRPPRLPRPRPRPLAEPRP, for which the “shrunken log2 fold change” value is 0.433.

As for RRIRDRPPRLPRPRPRPMWHPRP, the “shrunken log2 fold change” value was -0.008.

In the case of RRIRQRPPRLPRPRPRPYNYPRP, the “shrunken log2 fold change” value is -1.44.

As for RRIRRRPPRLPRPRPRPLPAPRP, the “shrunken log2 fold change” value is 0.599.

Consider RRIRTRPPRLPRPRPRPGMIPRP, for which the “shrunken log2 fold change” value was -0.0261.

RRIRTRPPRLPRPRPRPSWLPRP: the “shrunken log2 fold change” value turned out to be 0.11.

For the sequence RRIRSRPPRLPRPRPRPEDVPRP, the “shrunken log2 fold change” value was found to be 0.183.

With RRIRLRPPRLPRPRPRPHANPRP, the “shrunken log2 fold change” value is -0.293.

For the sequence RRIRKRPPRLPRPRPRPNFKPRP, the “shrunken log2 fold change” value came out at 0.166.
